# Reference: patent US20030008808
# System: 30S ribosomal subunit (activated, mRNA-programmed; ribonucleoprotein)
# Assay: filter
# Conditions: CMN buffer
substance,measurement,setting,value
human ASLLys3(SUU),Kd,"s2U at position 34, poly(A)-programmed, also bound poly(AG)-programmed, 20 mM MgCl2",176 nM
native E. coli tRNALys(SUU),Kd,"native modifications incl. mnm5s2U34, poly(A)-programmed, 20 mM MgCl2, 100 mM NH4Cl, pH 7.2, 37 C then ice",70 nM
native yeast tRNAPhe(GmAA),Kd,"native modifications incl. Gm34, poly(U)-programmed, 20 mM MgCl2",103 nM
yeast ASLPhe(GAA),Kd,"poly(U)-programmed, 20 mM MgCl2",136 nM
